T1: MR-proADM (human)
T1 chain: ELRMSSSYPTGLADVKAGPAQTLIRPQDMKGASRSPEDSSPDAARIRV

B1: Ab2 (antibody, V domains shown)
VH: QIQLVQSGPELRKPGETVKISCKASGYTFTDYSMHWVKQVPGKVLKWMGWINTETGEPTYVDDFKGRFAFSLETSASTAYLRINILKNEDAATYFCATNFDYWGQGTTLTVSS
VL: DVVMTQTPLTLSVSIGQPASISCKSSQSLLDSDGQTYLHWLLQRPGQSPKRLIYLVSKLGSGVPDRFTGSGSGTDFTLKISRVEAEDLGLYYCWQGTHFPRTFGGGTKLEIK
B2: Ab3 (antibody, V domains shown)
VH: EVQLQQSGPELVRPGASVKISCKASGYSFTDYFMHWMKQSHVKSLEWIGRLNPYNGATNYNQNFKDKATLTVDKSSSTAYMELHSLTSEDSAVYYCLSFTTPPEAYWGQGTLVTVSA
VL: EIVMTQAAFSNPVTLGTSASISCRSNKSLLYSNGITYLFWYLQRPGQSPQLLIYQMSNLASGVPDRFSGSGSGTDFTLRISRVEAEDVGVYYCAQNLELPWTFGGGTKLEIK
B3: Ab5 (antibody, V domains shown)
VH: EVQLQQSGPELVKPGASVKISCKASGYSFTDYYMHWVKQSHVKSLEWIGRINPYNGATKYNQNFKDKASLTVDKSSSTAYMELHSLTSEDSAVYYCTRRYDNDDGDYWGQGTTLRVSS
VL: DIVMTQAAFSNPVTLGTSASISCRSSKSLLYSNGITYLYWYLQKPGQSPQLLIYQMSNLASGVPDRFSSSGSGTDFTLRISRVEAEDVGVYYCAQNLELPWTFGGGTKLEIK

Tests used:
[1] = target: T1, MR-proADM; test: SPR, 25C pH 7.4, Ab 2-b
[2] = target: T1, MR-proADM; test: SPR, 25C pH 7.4, Ab 2-a
[3] = target: T1, MR-proADM; test: SPR, antigen 2
[4] = target: T1, MR-proADM; test: SPR, 25C pH 7.4, Ab 2-c
[5] = target: T1, MR-proADM; test: SPR, antigen 1
[6] = target: T1, MR-proADM; test: SPR, 25C pH 7.4, Ab 3-d
[7] = target: T1, MR-proADM; test: SPR, 25C pH 7.4, Ab 3-c
[8] = target: T1, MR-proADM; test: SPR, 25C pH 7.4, Ab 3-a
[9] = target: T1, MR-proADM; test: SPR, 25C pH 7.4, Ab 3-b
[10] = target: T1, MR-proADM; test: SPR, 25C pH 7.4

| Binder | Kd [1] [nM] | Kd [2] [nM] | Kd [3] [nM] | Kd [4] [nM] | Kd [5] [nM] | Kd [6] [nM] | Kd [7] [nM] | Kd [8] [nM] | Kd [9] [nM] | Kd [10] [nM] |
| --- | --- | --- | --- | --- | --- | --- | --- | --- | --- | --- |
| B1 | 3.02 | 2.97 | 2.57 | 2.82 | 2.49 | – | – | – | – | – |
| B2 | – | – | 17.4 | – | 13.9 | 20.1 | 18.8 | 14.8 | 17.1 | – |
| B3 | – | – | 101 | – | 6.47 | – | – | – | – | 247 |

From patent US20260318927 (published 2026)
